From US20200132689 come the findings set out here.

The data set concerns the target panel of anti-NAMPT murine monoclonal antibodies (mAbs).

B1: nicotinamide phosphoribosyltransferase (NAMPT) (protein)
chain: MNPAAEAEFNILLATDSYKVTHYKQYPPNTSKVYSYFECREKKTENSKLRKVKYEETVFYGLQYILNKYLKGKVVTKEKIQEAKDVYKEHFQDDVFNEKGWNYILEKYDGHLPIEIKAVPEGFVIPRGNVLFTVENTDPECYWLTNWIETILVQSWYPITVATNSREQKKILAKYLLETSGNLDGLEYKLHDFGYRGVSSQETAGIGASAHLVNFKGTDTVAGLALIKKYYGTKDPVPGYSVPAAEHSTITAWGKDHEKDAFEHIVTQFSSVPVSVVSDSYDIYNACEKIWGEDLRHLIVSRSTQAPLIIRPDSGNPLDTVLKVLEILGKKFPVTENSKGYKLLPPYLRVIQGDGVDINTLQEIVEGMKQKMWSIENIAFGSGGGLLQKLTRDLLNCSFKCSYVVTNGLGINVFKDPVADPNKRSKKGRLSLHRTPAGNFVTLEEGKGDLEEYGQDLLHTVFKNGKVTKSYSFDEIRKNAQLNIELEAAHH
As to B1, the “NAMPT-induced NFκB phosphorylation” value is on record as “highly efficacious in significantly reducing NAMPT-induced NFκB phosphorylation”.
